In patent US20030236190A1 (published 2003):
Starred links: 1 amine or outer side, 2 acyl side, 3 side chain; linkers in the order of their positions; H or OH if unused. Positions of bridges follow the written chain, without caps; N, C: chain ends. Non-standard residues stand in square brackets, D forms with d. Primed or numbered codes have the meaning given here. Chains are numbered I, II in the order given. No end group written: not given here. Lig′ = lysine with a 2-aminohydroxyacetyl group (CO-CH2-O-NH2) on the side-chain amino group, O=C(CON[*:3])NCCCC[C@H](N[*:1])C(=O)[*:2]; Hyp = O=C(O)[C@@H]1C[C@@H](O)CN1; Tic = O=C(O)[C@@H]1Cc2ccccc2CN1; Cha = N[C@@H](CC1CCCCC1)C(=O)O; linker 14 = not defined here; Ac6c = NC1(C(=O)O)CCCCC1; Aic′ = not defined here; Aib = CC(C)(N)C(=O)O

B1: S255 (peptide)
peptide 1: SDGFYNAIELLSGGGX
peptide 2: SDGFYNAIELLSGGGX
modifications: not fully specified; C-terminal Lig′ coupled to linker 14
notes: dimer, C-C
B2: S172 (peptide)
peptide 1: XFHENFYDWFVRQVSKK
peptide 2: XFHENFYDWFVRQVSKK
modifications: N-terminal Lig coupled to linker 14
notes: dimer, N-N
B3: S290 (peptide)
peptide 1: XGGGFHENFYDWFVRQVSKK
peptide 2: XGGGFHENFYDWFVRQVSKK
modifications: not fully specified; N-terminal Lig′ coupled to linker 7
notes: dimer, N-N
B4: S293 (peptide)
peptide 1: XGGGFHENFYDWFVRQVSKK
peptide 2: XGGGFHENFYDWFVRQVSKK
modifications: not fully specified; N-terminal Lig′ coupled to linker 13
notes: dimer, N-N
B5: S170 (peptide)
peptide 1: CGFHENFYDWFVRQVSKK
peptide 2: CGFHENFYDWFVRQVSKK
modifications: bridge I:1-II:1; also: homodimer, N-N, linked at cysteines, type of link not given here
notes: dimer, N-N; also called 3170 (so in the source)
B6: S231 (peptide)
peptide 1: FHENFYDWFVRQVSKKGGGX
peptide 2: FHENFYDWFVRQVSKKGGGX
modifications: not fully specified; C-terminal Lig′ coupled to linker 14
notes: dimer, C-C
B7: S229 (peptide)
peptide 1: SDGFYNAIELLSX
peptide 2: KHLCVLEELFWGASLFGYCSGKKX
modifications: not fully specified; C-terminal Lig′ coupled to linker 12
notes: heterodimer F2-F4, C-C
B8: S301 (peptide)
peptide 1: XDWLQRNANFYDWFVAEL
peptide 2: XDWLQRNANFYDWFVAEL
modifications: N-terminal Lig′ coupled to linker 14
notes: dimer, N-N
B9: S292 (peptide)
peptide 1: XGGGFHENFYDWFVRQVSKK
peptide 2: XGGGFHENFYDWFVRQVSKK
modifications: not fully specified; N-terminal Lig′ coupled to linker 12
notes: dimer, N-N
B10: S169 (peptide)
peptide 1: XFHENFYDWFVRQVSKK
peptide 2: XFHENFYDWFVRQVSKK
modifications: N-terminal Lig coupled to linker 12
notes: dimer, N-N
B11: S233 (peptide)
peptide 1: FHENFYDWFVRQVSKKX
peptide 2: SDGFYNAIELLSX
modifications: not fully specified; C-terminal Lig′ coupled to linker 14
notes: heterodimer F1-F2, C-C
B12: S218 (peptide)
peptide 1: AFYDWFAKK[Lig′]
peptide 2: AFYDWFAKK[Lig′]
modifications: linker I:10-II:10 via linker 14; not fully specified; reading uncertain
notes: dimer, C-C

What follows are binders tested against T1, human insulin receptor (HIR) (human, UniProt P06213 28-1382, limits assumed) (assay: 125I-insulin displacement, solubilised HIR).
T1 construct: Detergent-solubilised receptor; The natural receptor is an alpha2-beta2 heterotetramer cleaved from one precursor
In the case of HETFYSMIRSLAK [S117], the Kd is reported as 2700 nM. In the case of SSNFYQALMLLS [S129], the Kd is reported as 2900 nM. With GRVDWLQRNANFYDWFVAEL [S248] the Kd was 63 nM. Binder B1 has a Kd of 1600 nM. Work on CGFHENFYDWFVRQVSKK (also called 3171 (so in the source)) [S171] yielded a Kd of 2900 nM. EFHENFYDWFVRQVSEE [S115] gave a Kd of 650 nM. ANFYDWFVAELG [S242] gave a Kd of 2000 nM. With SDGFYNAIELLS [S118] the Kd was 2400 nM. For QSFYDYIEELLGGEWKK [S288], the Kd was 4300 nM. In the case of VDWLQRNANFYDWFVAELG [S235], the Kd is reported as 53 nM. For [Ac6c]CLEEWGASL[Tic]QCSG (cysteine pairing not given here) [S256], the Kd was 9000 nM. For B2, the Kd was 4800 nM. WQGYAWLS [S316] was tested, and the Kd was 7000 nM. PLAELWAYFEHSEQGRSSAH [S174] gave a Kd of 16000 nM. For FHENFYDWFVRAVSKK [S107], the Kd was 1000 nM. For NANFYDWFVAELG [S241], the Kd was 1600 nM. For EHWNTVDPFYFTLFEWLRESG [S177], the Kd was 2700 nM. In the case of B3, the Kd is reported as 900 nM. B4 gave a Kd of 120 nM. For SGPFYEE[Ac6c]ELLW[Aib]G (printed: SGPFYEE-Acy-ELLW-Aib-G) [S303], the Kd was 5700 nM. For AHENFYDWFVRQVSKK [S113], the Kd was 590 nM. In the case of WLQRNANFYDWFVAELG [S237], the Kd is reported as 850 nM. In the case of NFYDWFVAELG [S243], the Kd is reported as 2000 nM. B5 gave a Kd of 700 nM. NGVERAGTGDNFYDWFVAQLH [S176] gave a Kd of 470 nM. In the case of HPPLSELKLFLIKK [S124], the Kd is reported as 23000 nM. GRVDWLQRNANFYDWFVA [S250] gave a Kd of 8900 nM. GRVDWLQRNANFYDWFV [S251] gave a Kd of 5600 nM. Work on HDPFYSMMKSLLK [S120] yielded a Kd of 2000 nM. Binder LDRQFYRYFQDLLVGFM [S260] has a Kd of 2300 nM. Binder QAPSNFYDWFVREWDEE [S287] has a Kd of 5900 nM. With FHENFYDWFVRQVSK (also called D117/H2C) [S158] the Kd was 810 nM. In the case of DWLQRNANFYDWFVAELX (C-terminal Lig′) [S294], the Kd is reported as 130 nM. For NSFYEALRMLSSK [S121], the Kd was 3100 nM. For N[Aib]PFYDE[Ac6c]DE[Cha]W[Aib]G (printed: N-Aib-PFYDE-Acy-DE-Cha-W-Aib-G) [S305], the Kd was 840 nM. In the case of FHENFYDWFVRQASKK [S106], the Kd is reported as 420 nM. QLEEEWAGVQCEVYGRECPS [S226] was tested, and the Kd was 1600 nM. With RVDWLQRNANFYDWFVAELG [S234] the Kd was 130 nM. For HPTSKEIYAKLLK [S122], the Kd was 9300 nM. For B6, the Kd was 270 nM. B7 showed a Kd of 44 nM. QSDSGTVHDRFYGWFRDTWAS [S179] was tested, and the Kd was 540 nM. Work on GGSFYDD[Ac6c]E[Aib]LW[Aib]G (printed: GGSFYDD-Acy-E-Aib-LW-Aib-G) [S304] yielded a Kd of 21000 nM. For DLRVLCELFGGAYVLGYCSE [S281], the Kd was 11000 nM. Binder B8 has a Kd of 640 nM. DWLQRNANFYDWFVAELG [S236] gave a Kd of 100 nM. For LQRNANFYDWFVAELG [S238], the Kd was 850 nM. B9 gave a Kd of 750 nM. IQGWEPFYGWFDDVVAQMFEE [S264] gave a Kd of 190 nM. Binder FHENFYDWFVRQVAKK [S105] has a Kd of 310 nM. For EHWNTVDPFYQYFSELLRESG [S178], the Kd was 130 nM. FHENFYDWFVAQVSKK [S108] gave a Kd of 750 nM. WLEHEWAQIQCELYGRGCTY [S285] showed a Kd of 830 nM. Binder SLNFYDALQLLAKK [S119] has a Kd of 1800 nM. In the case of FAENFYDWFVRQVSKK [S112], the Kd is reported as 610 nM. GRVDWLQRNANFYDWFVAE [S249] showed a Kd of 740 nM. Work on B10 yielded a Kd of 580 nM. Binder HPSTNQMLMKLFK [S123] has a Kd of 16000 nM. Work on TGHRLGLDEQFYWWFRDALSG [S265] yielded a Kd of 110 nM. With GRVDWLQRNANFYDWFVAE[Ac6c]G [S306] the Kd was 2200 nM. With B11 the Kd was 260 nM. SDGFYNA[Ac6c]ELLSG (printed: SDGFYNA-Acy-ELLSG) [S302] showed a Kd of 860 nM. D[Aic′]D[Aib]EFYDWFDE[dI]P[dQ] [S319] showed a Kd of 870 nM. Binder AAAAFYDWFAAAAAKK [S168] has a Kd of 3800 nM. Binder RD[Hyp]FYDWFDD[dI] (printed: RD-Hyp-FYDWFDDi) [S268] has a Kd of 450 nM. Work on RWPNFYGYFESLLTHFS [S257] yielded a Kd of 14000 nM. B12 gave a Kd of 11000 nM. In the case of PLCFLQELFGGASLGGYCSG [S262], the Kd is reported as 19000 nM.
